In ChEMBL document CHEMBL1275443, “Functional diversity among metallo-beta-lactamases: characterization of the CAR-1 enzyme of Erwinia carotovora” (2008):

Legend:
[1] = substrate: CC(=O)OCC1=C(C(=O)O)N2C(=O)[C@@H](NC(=O)Cc3cccs3)[C@H]2SC1; assay: (§1) Ratio of Kcat to Km for Caulobacter crescentus beta-Lactamase CAU-1; conditions: Caulobacter vibrioides
[2] = substrate: CC(C)(O/N=C(\C(=O)N[C@@H]1C(=O)N2C(C(=O)[O-])=C(C[n+]3ccccc3)CS[C@H]12)c1csc(N)n1)C(=O)O; assay: as §1; conditions: Caulobacter vibrioides
[3] = substrate: CC1(C)S[C@@H]2[C@H](NC(=O)Cc3ccccc3)C(=O)N2[C@H]1C(=O)O; assay: as §1; conditions: Caulobacter vibrioides
[4] = substrate: CC1(C)S[C@@H]2[C@H](NC(=O)[C@H](N)c3ccccc3)C(=O)N2[C@H]1C(=O)O; assay: as §1; conditions: Caulobacter vibrioides
[5] = substrate: CCN1CCN(C(=O)N[C@@H](C(=O)N[C@@H]2C(=O)N3[C@@H]2SC(C)(C)[C@@H]3C(=O)O)c2ccccc2)C(=O)C1=O; assay: as §1; conditions: Caulobacter vibrioides
[6] = substrate: CO/N=C(\C(=O)N[C@@H]1C(=O)N2C(C(=O)O)=C(COC(N)=O)CS[C@H]12)c1ccco1; assay: as §1; conditions: Caulobacter vibrioides
[7] = substrate: C[C@@H](O)[C@H]1C(=O)N2C(C(=O)O)=C(SCCNC=N)C[C@H]12; assay: as §1; conditions: Caulobacter vibrioides
[8] = substrate: CC(C)(O/N=C(\C(=O)N[C@@H]1C(=O)N2C(C(=O)[O-])=C(C[n+]3ccccc3)CS[C@H]12)c1csc(N)n1)C(=O)O; assay: (§2) Ratio of Kcat to Km for Janthinobacterium lividum THIN-B
[9] = substrate: CC1(C)S[C@@H]2[C@H](NC(=O)[C@H](N)c3ccccc3)C(=O)N2[C@H]1C(=O)O; assay: as §2
[10] = substrate: CCN1CCN(C(=O)N[C@@H](C(=O)N[C@@H]2C(=O)N3[C@@H]2SC(C)(C)[C@@H]3C(=O)O)c2ccccc2)C(=O)C1=O; assay: as §2
[11] = substrate: CO/N=C(\C(=O)N[C@@H]1C(=O)N2C(C(=O)O)=C(COC(C)=O)CS[C@H]12)c1csc(N)n1; assay: as §2
[12] = substrate: CO/N=C(\C(=O)N[C@@H]1C(=O)N2C(C(=O)O)=C(COC(N)=O)CS[C@H]12)c1ccco1; assay: as §2
[13] = substrate: CO/N=C(\C(=O)N[C@@H]1C(=O)N2C(C(=O)[O-])=C(C[N+]3(C)CCCC3)CS[C@H]12)c1csc(N)n1; assay: as §2
[14] = substrate: C[C@@H](O)[C@H]1C(=O)N2C(C(=O)O)=C(SCCNC=N)C[C@H]12; assay: as §2
[15] = substrate: CC(=O)OCC1=C(C(=O)O)N2C(=O)[C@@H](NC(=O)Cc3cccs3)[C@H]2SC1; assay: (§3) Ratio of Kcat to Km for Chryseobacterium meningosepticum beta-Lactamase GOB-1; conditions: Elizabethkingia meningoseptica
[16] = substrate: CC(C)(O/N=C(\C(=O)N[C@@H]1C(=O)N2C(C(=O)[O-])=C(C[n+]3ccccc3)CS[C@H]12)c1csc(N)n1)C(=O)O; assay: as §3; conditions: Elizabethkingia meningoseptica
[17] = substrate: CC1(C)S[C@@H]2[C@H](NC(=O)Cc3ccccc3)C(=O)N2[C@H]1C(=O)O; assay: as §3; conditions: Elizabethkingia meningoseptica
[18] = substrate: CC1(C)S[C@@H]2[C@H](NC(=O)[C@H](C(=O)O)c3ccsc3)C(=O)N2[C@H]1C(=O)O; assay: as §3; conditions: Elizabethkingia meningoseptica
[19] = substrate: CCN1CCN(C(=O)N[C@@H](C(=O)N[C@@H]2C(=O)N3[C@@H]2SC(C)(C)[C@@H]3C(=O)O)c2ccccc2)C(=O)C1=O; assay: as §3; conditions: Elizabethkingia meningoseptica
[20] = substrate: CO/N=C(\C(=O)N[C@@H]1C(=O)N2C(C(=O)O)=C(COC(C)=O)CS[C@H]12)c1csc(N)n1; assay: as §3; conditions: Elizabethkingia meningoseptica
[21] = substrate: CO/N=C(\C(=O)N[C@@H]1C(=O)N2C(C(=O)O)=C(COC(N)=O)CS[C@H]12)c1ccco1; assay: as §3; conditions: Elizabethkingia meningoseptica
[22] = substrate: CO/N=C(\C(=O)N[C@@H]1C(=O)N2C(C(=O)[O-])=C(C[N+]3(C)CCCC3)CS[C@H]12)c1csc(N)n1; assay: as §3; conditions: Elizabethkingia meningoseptica
[23] = substrate: CO[C@@]1(NC(=O)Cc2cccs2)C(=O)N2C(C(=O)O)=C(COC(N)=O)CS[C@@H]21; assay: as §3; conditions: Elizabethkingia meningoseptica
[24] = substrate: C[C@@H](O)[C@H]1C(=O)N2C(C(=O)O)=C(SCCNC=N)C[C@H]12; assay: as §3; conditions: Elizabethkingia meningoseptica
[25] = substrate: CC(C)(O/N=C(\C(=O)N[C@@H]1C(=O)N2C(C(=O)[O-])=C(C[n+]3ccccc3)CS[C@H]12)c1csc(N)n1)C(=O)O; assay: (§4) Ratio of Kcat to Km for Pseudomonas maltophilia ULA-511 beta-Lactamase L-1; conditions: Stenotrophomonas maltophilia
[26] = substrate: CC1(C)S[C@@H]2[C@H](NC(=O)Cc3ccccc3)C(=O)N2[C@H]1C(=O)O; assay: as §4; conditions: Stenotrophomonas maltophilia
[27] = substrate: CC1(C)S[C@@H]2[C@H](NC(=O)[C@H](C(=O)O)c3ccsc3)C(=O)N2[C@H]1C(=O)O; assay: as §4; conditions: Stenotrophomonas maltophilia
[28] = substrate: CC1(C)S[C@@H]2[C@H](NC(=O)[C@H](N)c3ccccc3)C(=O)N2[C@H]1C(=O)O; assay: as §4; conditions: Stenotrophomonas maltophilia
[29] = substrate: CCN1CCN(C(=O)N[C@@H](C(=O)N[C@@H]2C(=O)N3[C@@H]2SC(C)(C)[C@@H]3C(=O)O)c2ccccc2)C(=O)C1=O; assay: as §4; conditions: Stenotrophomonas maltophilia
[30] = substrate: CO/N=C(\C(=O)N[C@@H]1C(=O)N2C(C(=O)O)=C(COC(C)=O)CS[C@H]12)c1csc(N)n1; assay: as §4; conditions: Stenotrophomonas maltophilia
[31] = substrate: CO/N=C(\C(=O)N[C@@H]1C(=O)N2C(C(=O)O)=C(COC(N)=O)CS[C@H]12)c1ccco1; assay: as §4; conditions: Stenotrophomonas maltophilia
[32] = substrate: CO/N=C(\C(=O)N[C@@H]1C(=O)N2C(C(=O)[O-])=C(C[N+]3(C)CCCC3)CS[C@H]12)c1csc(N)n1; assay: as §4; conditions: Stenotrophomonas maltophilia
[33] = substrate: CO[C@@]1(NC(=O)C(C(=O)O)c2ccsc2)C(=O)N2[C@@H](C(=O)O)C(C)(C)S[C@@H]21; assay: as §4; conditions: Stenotrophomonas maltophilia
[34] = substrate: CO[C@@]1(NC(=O)Cc2cccs2)C(=O)N2C(C(=O)O)=C(COC(N)=O)CS[C@@H]21; assay: as §4; conditions: Stenotrophomonas maltophilia
[35] = substrate: C[C@@H](O)[C@H]1C(=O)N2C(C(=O)O)=C(SCCNC=N)C[C@H]12; assay: as §4; conditions: Stenotrophomonas maltophilia

B1: Metallo-beta-lactamase (Caulobacter vibrioides), Q8KKG1 (protein)
chain: MKRLILAAAASLLALASAAHADDMPANWTKPTKPYRVVGNIYYVGTEGISSWLITSSEGHVVLDGGPNAETGKLVERNITALGFQLADVKILINTHAHYDHAGGLAQLKADTGAKLWISRDDAPAMAAGHHIGDNIYGPTPMPAAKPDRSFGDQTKLKLGEIAMVAHLTPGHTIGCTSWTTAVVEKGRPLTVTFPCSLSVAGNVLVGNKTHRTIVADYRASFAKLRAIPTDVMLPAHEEQGNLLAKRQKQLRGDPNAFVDPGELARFVDASEAAFNKELARQQAAGPNR
- kcat/Km [1]: 4.3 ×10⁵ /M/s
- kcat/Km [2]: 2 ×10³ /M/s
- kcat/Km [3]: 4.5 ×10⁵ /M/s
- kcat/Km [4]: 5 ×10⁵ /M/s
- kcat/Km [5]: 5.7 ×10⁵ /M/s
- kcat/Km [6]: 1.4 ×10⁴ /M/s
- kcat/Km [7]: 2 ×10⁵ /M/s

B2: THIN-B proetin (Janthinobacterium lividum), Q9AEF9 (protein)
chain: MTLLAKLMLATVATMSAATVQAKTPAPKPDTPVDCDSCKAWNGEVTPFNVFGNTWYVGTAGLSAVLVTSPQGHVLLDGALPQSAPLIIANIAALGFRIEDVKFILNSHAHWDHAGGIAALQAASGATVVASASGALGLQSGTNGKDDPQFQAKPVVHVAKVEKVKVVGEGDAIKLGPLNLTAHMTPGHTPGATTWTWTSCEGQRCLDVVYADSLNPYSSGDFTYTGKGDGPDISASFAASIAKVAALPCDIILSVHPDSTGVLDKAAKRSGEHNPFIDANACRAYAATADAMLTKRLAKERGVALPAAAPAAQHAH
- kcat/Km [8]: 1.4 ×10⁵ /M/s
- kcat/Km [9]: 3.7 ×10⁵ /M/s
- kcat/Km [10]: 2 ×10⁵ /M/s
- kcat/Km [11]: 2 ×10⁶ /M/s
- kcat/Km [12]: 2.8 ×10⁶ /M/s
- kcat/Km [13]: 7.9 ×10³ /M/s
- kcat/Km [14]: 1.5 ×10⁶ /M/s

B3: GOB-1 metallo-beta-lactamase (Elizabethkingia meningoseptica), A4GRB7 (protein)
chain: MRNFATLFFMFICLGLNAQVVKEPENMPKEWNQTYEPFRIAGNLYYVGTYDLASYLIVTDKGNILINTGTAESLPIIKANIQKLGFNYKDIKILLLTQAHYDHTGALQDLKTETGAKFYADKADADVLRTGGKSDYEMGKYGVTFKPVTPDKTLKDQDKITLGNTILTLLHHPGHTKGSCSFIFETKDEKRKYRVLIANMPSVIVDKKFSEVTAYPNIQSDYAYTFKAMKNLDFDLWVASHASQFDLHEKRKEGDPYNPQLFMDKQSYFQNLNDLEKSYLDKIKKDSQDK
- kcat/Km [15]: 6.7 ×10⁵ /M/s
- kcat/Km [16]: 7.6 ×10⁵ /M/s
- kcat/Km [17]: 1.9 ×10⁷ /M/s
- kcat/Km [18]: 5.2 ×10⁵ /M/s
- kcat/Km [19]: 1.7 ×10⁶ /M/s
- kcat/Km [20]: 8.5 ×10⁵ /M/s
- kcat/Km [21]: 9.8 ×10⁵ /M/s
- kcat/Km [22]: 2 ×10⁵ /M/s
- kcat/Km [23]: 2.5 ×10⁵ /M/s
- kcat/Km [24]: 6.6 ×10⁵ /M/s

B4: Beta-lactamase L1 (Stenotrophomonas maltophilia), P52700 (protein)
chain: MRSTLLAFALAVALPAAHTSAAEVPLPQLRAYTVDASWLQPMAPLQIADHTWQIGTEDLTALLVQTPDGAVLLDGGMPQMASHLLDNMKARGVTPRDLRLILLSHAHADHAGPVAELKRRTGAKVAANAESAVLLARGGSDDLHFGDGITYPPANADRIVMDGEVITVGGIVFTAHFMAGHTPGSTAWTWTDTRNGKPVRIAYADSLSAPGYQLQGNPRYPHLIEDYRRSFATVRALPCDVLLTPHPGASNWDYAAGARAGAKALTCKAYADAAEQKFDGQLAKETAGAR
- kcat/Km [25]: 1.8 ×10⁵ /M/s
- kcat/Km [26]: 2.2 ×10⁷ /M/s
- kcat/Km [27]: 2.7 ×10⁶ /M/s
- kcat/Km [28]: 4.4 ×10⁶ /M/s
- kcat/Km [29]: 7 ×10⁶ /M/s
- kcat/Km [30]: 2.6 ×10⁶ /M/s
- kcat/Km [31]: 2.7 ×10⁶ /M/s
- kcat/Km [32]: 1.69 ×10⁴ /M/s
- kcat/Km [33]: 1.2 ×10⁶ /M/s
- kcat/Km [34]: 5.5 ×10⁵ /M/s
- kcat/Km [35]: 7.3 ×10⁵ /M/s
